This note sets out measurements from paper PMC5777247, “Cohesin SA2 is a sequence-independent DNA-binding protein that recognizes DNA replication and repair intermediates”.

In series [1] the target is T1, SA2 (STAG2), full length (human, UniProt Q8N3U4 1-1231).
T1 sequence: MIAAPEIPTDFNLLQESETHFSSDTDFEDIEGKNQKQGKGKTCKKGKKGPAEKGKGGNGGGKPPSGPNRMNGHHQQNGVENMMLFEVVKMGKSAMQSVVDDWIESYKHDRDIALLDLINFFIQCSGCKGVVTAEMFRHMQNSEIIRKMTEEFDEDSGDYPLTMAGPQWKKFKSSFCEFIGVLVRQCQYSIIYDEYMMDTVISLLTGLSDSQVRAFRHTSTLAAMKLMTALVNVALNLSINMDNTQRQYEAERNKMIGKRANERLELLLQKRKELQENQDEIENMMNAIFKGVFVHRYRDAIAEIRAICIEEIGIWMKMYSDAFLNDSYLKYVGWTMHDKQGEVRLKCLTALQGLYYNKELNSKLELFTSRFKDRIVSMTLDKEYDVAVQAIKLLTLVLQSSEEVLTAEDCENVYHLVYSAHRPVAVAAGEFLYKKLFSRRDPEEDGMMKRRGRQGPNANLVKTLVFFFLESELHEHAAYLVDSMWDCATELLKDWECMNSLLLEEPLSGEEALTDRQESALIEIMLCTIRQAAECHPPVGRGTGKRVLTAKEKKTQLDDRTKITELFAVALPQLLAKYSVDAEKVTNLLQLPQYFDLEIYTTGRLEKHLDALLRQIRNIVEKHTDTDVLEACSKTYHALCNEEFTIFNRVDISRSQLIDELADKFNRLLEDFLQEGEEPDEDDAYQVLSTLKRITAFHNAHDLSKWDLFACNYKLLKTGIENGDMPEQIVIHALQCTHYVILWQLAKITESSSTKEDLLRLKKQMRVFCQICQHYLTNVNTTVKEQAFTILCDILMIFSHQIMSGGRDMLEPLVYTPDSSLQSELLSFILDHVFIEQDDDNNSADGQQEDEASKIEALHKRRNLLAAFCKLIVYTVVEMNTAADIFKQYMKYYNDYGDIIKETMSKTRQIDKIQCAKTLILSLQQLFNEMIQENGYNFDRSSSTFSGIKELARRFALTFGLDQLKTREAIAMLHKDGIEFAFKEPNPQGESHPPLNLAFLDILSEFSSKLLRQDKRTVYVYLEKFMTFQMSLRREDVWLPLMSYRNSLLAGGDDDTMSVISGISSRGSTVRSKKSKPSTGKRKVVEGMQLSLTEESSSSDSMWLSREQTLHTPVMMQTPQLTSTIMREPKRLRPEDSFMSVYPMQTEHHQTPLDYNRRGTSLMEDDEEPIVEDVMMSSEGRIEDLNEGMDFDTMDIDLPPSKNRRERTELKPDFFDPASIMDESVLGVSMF
The experiment in a line: AFM. The settings on record: Anisotropy: 20 mM Hepes pH 7.5, 0.1 mM MgCl2, 0.5 mM DTT, 100 mM KCl, 1 nM DNA, AFM: 20 mM Hepes pH 7.5, 100 mM KCl, 0.1 mM MgCl2, room temperature, 20 min.

For series [2], the target named is His-tagged full-length SA2 (amino acids 1-1231, 141 kDa) (human) (UniProt Q8N3U4). Description: single-molecule fluorescence imaging on DNA tightropes; QD-labeled His-SA2 on DNA tightropes (centromeric, telomeric, gapped) between silica beads, oblique angle TIRF, no buffer flow; encounters of SA2-QDs on DNA followed in kymographs.
Series [3] has the same target. Description: AFM volume analysis; SA2 incubated with linear DNA substrates in 20 mM Hepes (pH 7.5), 100 mM KCl, 0.1 mM MgCl2 at room temperature for 20 min, deposited on mica; number of SA2 molecules in DNA-bound complexes from the AFM volume calibration curve.
For series [4], the target named is T1, SA2 (STAG2), full length. Description: fluorescence anisotropy. The settings on record: Anisotropy: 20 mM Hepes pH 7.5, 0.1 mM MgCl2, 0.5 mM DTT, 100 mM KCl, 1 nM DNA; AFM: 20 mM Hepes pH 7.5, 100 mM KCl, 0.1 mM MgCl2, room temperature, 20 min. Background: In fluorescence polarisation assays a small probe gives low polarisation when free and higher when bound to something large.

For series [5], the target named is T2, SA2 1-1051 (human, UniProt Q8N3U4 1-1051).
T2 sequence: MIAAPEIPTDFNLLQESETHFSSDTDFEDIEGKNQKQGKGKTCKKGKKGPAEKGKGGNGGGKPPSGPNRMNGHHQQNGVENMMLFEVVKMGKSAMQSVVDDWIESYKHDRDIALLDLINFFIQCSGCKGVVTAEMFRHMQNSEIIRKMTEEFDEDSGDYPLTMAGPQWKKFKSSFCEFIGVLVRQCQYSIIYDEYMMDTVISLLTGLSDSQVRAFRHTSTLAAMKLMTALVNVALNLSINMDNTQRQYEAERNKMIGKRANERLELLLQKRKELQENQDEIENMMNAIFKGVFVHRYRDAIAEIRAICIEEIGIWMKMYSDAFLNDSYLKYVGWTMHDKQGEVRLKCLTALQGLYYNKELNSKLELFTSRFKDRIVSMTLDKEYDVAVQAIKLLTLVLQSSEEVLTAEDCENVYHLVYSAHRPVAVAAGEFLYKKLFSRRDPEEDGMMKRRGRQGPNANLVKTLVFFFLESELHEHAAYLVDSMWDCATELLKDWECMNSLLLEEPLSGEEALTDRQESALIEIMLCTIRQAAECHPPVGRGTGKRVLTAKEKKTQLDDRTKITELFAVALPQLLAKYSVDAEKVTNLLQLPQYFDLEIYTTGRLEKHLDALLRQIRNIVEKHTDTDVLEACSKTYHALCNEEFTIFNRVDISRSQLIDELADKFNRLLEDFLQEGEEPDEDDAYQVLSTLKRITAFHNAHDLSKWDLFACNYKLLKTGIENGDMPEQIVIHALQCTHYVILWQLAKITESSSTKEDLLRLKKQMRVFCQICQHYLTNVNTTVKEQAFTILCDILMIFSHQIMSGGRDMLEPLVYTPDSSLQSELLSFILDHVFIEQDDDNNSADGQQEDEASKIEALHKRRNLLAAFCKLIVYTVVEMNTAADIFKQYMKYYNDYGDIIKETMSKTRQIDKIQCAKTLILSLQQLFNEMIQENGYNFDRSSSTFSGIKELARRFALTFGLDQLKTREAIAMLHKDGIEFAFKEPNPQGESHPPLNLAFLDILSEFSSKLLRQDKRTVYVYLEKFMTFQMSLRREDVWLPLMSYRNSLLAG
Description: AFM. Particulars: Anisotropy: 20 mM Hepes pH 7.5, 0.1 mM MgCl2, 0.5 mM DTT, 100 mM KCl, 1 nM DNA, AFM: 20 mM Hepes pH 7.5, 100 mM KCl, 0.1 mM MgCl2, room temperature, 20 min.

In series [6] the target is T1, SA2 (STAG2), full length. Description: fluorescence anisotropy; uncertain: low saturation; Anisotropy: 20 mM Hepes pH 7.5, 0.1 mM MgCl2, 0.5 mM DTT, 100 mM KCl, 1 nM DNA; AFM: 20 mM Hepes pH 7.5, 100 mM KCl, 0.1 mM MgCl2, room temperature, 20 min. Particulars: protein: recombinant; tags: 6xHis; label: 5' Alexa 488.
Series [7] has as its target T1, SA2 (STAG2), full length. The experiment in a line: fluorescence anisotropy; Anisotropy: 20 mM Hepes pH 7.5, 0.1 mM MgCl2, 0.5 mM DTT, 100 mM KCl, 1 nM DNA; AFM: 20 mM Hepes pH 7.5, 100 mM KCl, 0.1 mM MgCl2, room temperature, 20 min. Particulars: protein: recombinant, tags: 6xHis.
The target of series [8] is T2, SA2 1-1051. Described as above. Particulars: protein: recombinant; tags: 6xHis; label: Alexa 488; blunt.
Setting [9] is: DNA ends vs internal, no centromere preference.

Several values for one entry are separate records, joined by “and”; a condition that tells them apart may be missing. Identical values can stand only once.

Take circular replication fork template: in the series with SA2 (STAG2), full length [1] (55.6% of bound SA2 at fork junction), the binding signal is 26 % DNA bound.

On to “His-tagged full-length SA2 (amino acids 1-1231, 141 kDa) (from UniProt Q8N3U4 1-1231) (natural protein)”, for which, in series [2], the percent of SA2-SA2 encounters on DNA that formed complexes was found to be 8%. Besides, the stoichiometry N (SA2 molecules) in series [3] was 5 and 4.

Turning to linear single-stranded fork DNA (AFM), the binding signal with SA2 (STAG2), full length [1] (fork vs internal) is 2950 KSP/KNSP.

What is called Kd is a measure of binding affinity in units of concentration. replication fork (anisotropy) came in with an equilibrium dissociation constant (Kd) with SA2 (STAG2), full length [4] of 133 nM.

In the case of Cen-end DNA, the binding signal in the series with SA2 (STAG2), full length [1] (setting [9]) was 2600 KSP/KNSP.

With ds66 telomeric, the equilibrium dissociation constant (Kd) with SA2 (STAG2), full length [4] was 88 nM.

Consider Cen-mid DNA, for which the binding signal with SA2 (STAG2), full length [1] (setting [9]) was found to be 2130 KSP/KNSP.

linear gapped DNA: the binding signal with SA2 (STAG2), full length [1] (ssDNA gap vs internal) worked out at 1990 KSP/KNSP; with SA2 1-1051 [5] (DNA ends vs internal, substrate for end value inferred), 1690 KSP/KNSP; with SA2 1-1051 [5] (ssDNA gap vs internal), 1810 KSP/KNSP.

In the series with SA2 (STAG2), full length [1] (flap vs internal), linear flap DNA (AFM) had a binding signal of 4260 KSP/KNSP.

In the series with SA2 (STAG2), full length [1] (replication fork vs internal), linear replication fork DNA (AFM) returned a binding signal of 3150 KSP/KNSP.

Turning to TGTCGCATAGTGTAG (ssDNA) [ss15], the Kd with SA2 (STAG2), full length [6] is ~1000 nM.

Consider TGTCGCATAGTGTAGTCGGTCTTGT (ssDNA) [ss25], for which, in the series with SA2 (STAG2), full length [6], the Kd was ~445 nM.

B1: ds66 non-telomeric (Alexa ss66 + ss66-com) (dsDNA)
DNA 1: CTGGATCCGTACAGTGTAAGGGTGAGTGGTTGGGTGTGTGGGTGTTGATGTAGAACAAGAATTCGA
DNA 2: TCGAATTCTTGTTCTACATCAACACCCACACACCCAACCACTCACCCTTACACTGTACGGATCCAG
Take B1: the equilibrium dissociation constant (Kd) with SA2 (STAG2), full length [7] (label: Alexa 488, blunt) was 76.2 ± 3.9 nM; in the series with SA2 1-1051 [8], 198 nM.

Take TGTCGCATAGTGTAGTCGGTCTTGTTCGGTCATAGCTCATCGTGG (ssDNA) [ss45 (oligo 1)]: the Kd with SA2 (STAG2), full length [7] (label: 5' Alexa 488) stood at 118 ± 5.3 nM.

B2: ds45 (oligo 1 + oligo 2) (dsDNA)
DNA 1: TGTCGCATAGTGTAGTCGGTCTTGTTCGGTCATAGCTCATCGTGG
DNA 2: CCACGATGAGCTATGACCGAACAAGACCGACTACACTATGCGACA
Turning to B2, the Kd with SA2 (STAG2), full length [7] (label: 5' Alexa 488 on strand 1, blunt) worked out at 175 ± 12.9 nM.
